Test results reported in PMC6934851, “Yeast R2TP Interacts with Extended Termini of Client Protein Nop58p” (Scientific Reports, 2019).

T1: Maltose Binding Protein (MBP)-fused Nop58p_447 (S. cerevisiae, UniProt Q12499 1-447)
T1 chain: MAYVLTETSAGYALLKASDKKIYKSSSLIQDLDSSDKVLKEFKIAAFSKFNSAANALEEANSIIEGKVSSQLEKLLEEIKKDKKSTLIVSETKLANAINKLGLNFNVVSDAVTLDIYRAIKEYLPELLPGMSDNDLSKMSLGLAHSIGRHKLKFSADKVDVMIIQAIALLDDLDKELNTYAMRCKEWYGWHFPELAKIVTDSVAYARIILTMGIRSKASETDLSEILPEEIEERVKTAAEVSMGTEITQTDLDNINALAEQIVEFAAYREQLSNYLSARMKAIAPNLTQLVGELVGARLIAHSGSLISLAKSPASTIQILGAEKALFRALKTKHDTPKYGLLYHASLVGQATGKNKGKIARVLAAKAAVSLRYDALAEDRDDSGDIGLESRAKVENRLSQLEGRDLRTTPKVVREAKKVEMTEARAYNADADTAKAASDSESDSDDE

B1: Maltose Binding Protein (MBP)-fused Nop58p_447 (domain or fragment, S. cerevisiae, UniProt Q12499 1-447, looked up)
chain: MAYVLTETSAGYALLKASDKKIYKSSSLIQDLDSSDKVLKEFKIAAFSKFNSAANALEEANSIIEGKVSSQLEKLLEEIKKDKKSTLIVSETKLANAINKLGLNFNVVSDAVTLDIYRAIKEYLPELLPGMSDNDLSKMSLGLAHSIGRHKLKFSADKVDVMIIQAIALLDDLDKELNTYAMRCKEWYGWHFPELAKIVTDSVAYARIILTMGIRSKASETDLSEILPEEIEERVKTAAEVSMGTEITQTDLDNINALAEQIVEFAAYREQLSNYLSARMKAIAPNLTQLVGELVGARLIAHSGSLISLAKSPASTIQILGAEKALFRALKTKHDTPKYGLLYHASLVGQATGKNKGKIARVLAAKAAVSLRYDALAEDRDDSGDIGLESRAKVENRLSQLEGRDLRTTPKVVREAKKVEMTEARAYNADADTAKAASDSESDSDDE
notes: In the cross-linking and cryo-EM sections the text often calls this MBP fusion simply Nop58p_447; also called MBP-Nop58p_447; MBP-Nop58_447; source: E. coli, purified (amylose, monoQ, gel filtration); not shown: MBP, N-terminal, kept

Columns and labels:
Rvb2p = target: T2, Rvb2p (yeast, UniProt Q12464 1-471); assay: cross-linking; co-purified MBP-Nop58p_447-R2TP complex, BS3-d0/BS3-d4 for 30 min, SDS-PAGE, trypsin, mass spectrometry; conditions: both partners purified
T2 construct: Rvb2p, yeast AAA+ ATPase; Subunit as it stood in the MBP-Nop58p_447-R2TP complex; also called Ruv2p; source: purified as Rvb1/2p heterocomplex, within reconstituted R2TP

Rvb1p = target: T3, Rvb1p (yeast, UniProt Q03940 1-463); assay: as above; conditions: both partners purified
T3 construct: Rvb1p, yeast AAA+ ATPase; Subunit as it stood in the MBP-Nop58p_447-R2TP complex; also called Ruv1p; source: purified as Rvb1/2p heterocomplex, within reconstituted R2TP

[1] = target: B1; assay: ITC; MBP-Nop58p in the sample cell (MBP-Nop58p_447 at 7.8 μM), Pih1p-Tah1p in the injector at 99.6 μM; 25 °C; 25 mM HEPES, 150 mM NaCl, 5% glycerol, 5 mM beta-ME, pH 7.5; One Site model; conditions: both partners purified
[2] = target: T1, Maltose Binding Protein (MBP)-fused …; assay: ITC
[3] = target: B1; assay: cross-linking; co-purified MBP-Nop58p_447-R2TP complex, BS3-d0/BS3-d4 for 30 min, SDS-PAGE, trypsin, mass spectrometry; conditions: both partners purified

T3 sequence (Q03940 whole entry): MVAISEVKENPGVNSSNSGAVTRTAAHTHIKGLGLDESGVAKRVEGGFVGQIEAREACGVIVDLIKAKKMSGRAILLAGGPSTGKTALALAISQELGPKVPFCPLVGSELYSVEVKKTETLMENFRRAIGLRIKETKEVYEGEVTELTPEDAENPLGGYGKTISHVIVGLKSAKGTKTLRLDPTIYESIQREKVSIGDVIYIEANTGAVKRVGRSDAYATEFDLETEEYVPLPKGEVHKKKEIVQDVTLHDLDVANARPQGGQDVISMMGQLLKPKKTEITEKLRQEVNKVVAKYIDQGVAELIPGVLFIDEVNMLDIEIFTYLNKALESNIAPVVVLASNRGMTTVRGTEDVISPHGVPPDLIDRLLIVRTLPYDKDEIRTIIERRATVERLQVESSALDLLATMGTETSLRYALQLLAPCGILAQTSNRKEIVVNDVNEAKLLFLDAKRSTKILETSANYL
T2 sequence (Q12464 whole entry): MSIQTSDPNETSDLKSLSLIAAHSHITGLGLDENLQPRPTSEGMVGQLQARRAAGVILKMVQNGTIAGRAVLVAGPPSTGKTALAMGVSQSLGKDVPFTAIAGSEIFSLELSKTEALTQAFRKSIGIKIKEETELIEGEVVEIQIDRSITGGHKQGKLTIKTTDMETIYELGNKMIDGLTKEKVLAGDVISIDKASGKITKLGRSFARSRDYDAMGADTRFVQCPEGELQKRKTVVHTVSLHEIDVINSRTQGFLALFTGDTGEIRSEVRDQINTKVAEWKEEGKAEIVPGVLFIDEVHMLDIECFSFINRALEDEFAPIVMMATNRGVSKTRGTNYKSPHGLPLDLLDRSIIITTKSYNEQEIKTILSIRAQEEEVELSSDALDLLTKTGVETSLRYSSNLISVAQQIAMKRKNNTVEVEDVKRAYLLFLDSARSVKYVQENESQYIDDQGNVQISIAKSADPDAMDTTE

binding result (Rvb2p)	binding result (Rvb1p)	stoichiometry N [1]	Kd [2]	binding result [3]	Binder
binds	binds				B1
		1	440 nM		Pih1p-Tah1p heterodimer (complex, yeast, Tah1p, yeast, YCR060W; also called His-Pih1p-Tah1p; source: purified) chain 1: MADFLLRPIKQRHRNEDKYVSVDAADGSVSKIEPIADFVIKTKLLSANGPEKLQDGRKVFINVCHSPLVPKPEVDFNARIVFPLIIQNEWEIPIITSCYRMDHDKKGQECYVWDCCINSDCSRWICDDIQLREILVEWCLESCEIRDSVVLCRDRIAFPKMKKKGAELPALEVLNDELHQDYKAKMHKIIEEEAGDPMSILRGRNDDGDDNNDPDDGTLPPLFPIENKISGAKIEEIDKNEIAHRNLKQAPAPAPAPHEQQEDVPEYEVKMKRFKGAAYKLRILIENKAPNSKPDRFSPSYNFAENILYINGKLSIPLPRDIVVNAADIKIFHIRKERTLYIYI chain 2: MSQFEKQKEQGNSLFKQGLYREAVHCYDQLITAQPQNPVGYSNKAMALIKLGEYTQAIQMCQQGLRYTSTAEHVAIRSKLQYRLELAQGAVGSVQIPVVEVDELPEGYDRS
	binds			binds	Pih1p (natural protein, yeast, UniProt P38768 1-344, looked up, Subunit as it stood in the MBP-Nop58p_447-R2TP complex; source: purified as His-Pih1p-Tah1p, within reconstituted R2TP) MADFLLRPIKQRHRNEDKYVSVDAADGSVSKIEPIADFVIKTKLLSANGPEKLQDGRKVFINVCHSPLVPKPEVDFNARIVFPLIIQNEWEIPIITSCYRMDHDKKGQECYVWDCCINSDCSRWICDDIQLREILVEWCLESCEIRDSVVLCRDRIAFPKMKKKGAELPALEVLNDELHQDYKAKMHKIIEEEAGDPMSILRGRNDDGDDNNDPDDGTLPPLFPIENKISGAKIEEIDKNEIAHRNLKQAPAPAPAPHEQQEDVPEYEVKMKRFKGAAYKLRILIENKAPNSKPDRFSPSYNFAENILYINGKLSIPLPRDIVVNAADIKIFHIRKERTLYIYI
